In article PMC2922993 (Nature chemical biology, 2010):
Non-standard residues stand in square brackets, D forms with d. No end group written: not given here. Lys(Me3) = C[N+](C)(C)CCCC[C@H](N)C(=O)O; Arg(Me2s) = CN=C(NC)NCCC[C@H](N)C(=O)O

T1: inhibitor of growth 2 (ING2) PHD finger
T1 sequence (Q9H160 whole entry, species assumed, looked up): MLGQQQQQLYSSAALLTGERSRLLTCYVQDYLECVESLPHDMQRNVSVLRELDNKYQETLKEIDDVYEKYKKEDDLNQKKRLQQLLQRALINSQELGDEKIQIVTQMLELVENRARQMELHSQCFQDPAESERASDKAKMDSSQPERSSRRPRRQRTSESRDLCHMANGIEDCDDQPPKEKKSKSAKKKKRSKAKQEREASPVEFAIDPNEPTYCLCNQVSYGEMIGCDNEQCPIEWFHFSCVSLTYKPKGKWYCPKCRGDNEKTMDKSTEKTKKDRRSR

B1: H3K4me3 peptide (ITC) (peptide)
chain: ART[Lys(Me3)]QTARKSTG
B2: H3 peptide bearing K4me3 and R2me2s marks (peptide)
chain: A[Arg(Me2s)]T[Lys(Me3)]QTARKSTG
B3: H3R2me2s- modified peptide (peptide)
chain: A[Arg(Me2s)]TKQTARKSTG

What was measured:
[1] = target: T1, inhibitor of growth 2 (ING2) PHD finger; assay: ITC
[2] = target: BRAF-HDAC Complex 80 (BHC80)-PHD finger (UniProt Q96BD5 486-543); assay: ITC
Chain of BRAF-HDAC Complex 80 (BHC80)-PHD finger (Q96BD5 486-543, one chain of several): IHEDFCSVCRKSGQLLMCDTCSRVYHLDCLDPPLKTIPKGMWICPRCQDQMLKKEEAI

Row | Binder | Kd [1] [µM] | Kd [2] [µM]
1 | B1 | 0.98 | –
2 | B2 | 17.3 | –
3 | B3 | – | 57.2
